Results from the supplement of paper PMC10567573.

B1: KRT13 (parent)
chain: YGGGLGGGFGGGFAGGFVDFGACD

Variants of: B1
Assay: protein stability index of a GFP-peptide fusion (GPS, HEK-293T) (PSI 1-6); higher = more stable
Conditions: c terminus: a fixed tail appended
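Note: lentivirally expressed fusions sorted by FACS into six bins by GFP to DsRed ratio, PSI derived from sequencing read proportions per bin multiplied by bin number.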

Protein stability index of substitutions, site by site:
G10: F 2.02, H 1.7, I 1.58, K 1.53, M 3.61, N 1.38, P 1.92, Q 2.21, R 1.91, S 2.15, T 1.26, V 1.93, W 3.23, Y 3.74
G11: C 1.56, D 2.38, E 2.12, F 2.07, H 1.75, I 3.54, K 1.97, L 3.08, M 2.25, N 2.43, P 2.25, Q 1.73, R 1.86, S 1.92, T 1.84, V 2.4, Y 4.04
G12: C 2.75, D 2.22, E 1.84, F 3.05, H 1.4, I 2.4, K 1.69, L 2.25, M 2.92, N 1.04, P 2.17, Q 1.39, R 2.24, S 1.77, T 2.68, V 2.42, W 1.34, Y 3.95
F13: A 1.55, C 2.11, D 2.1, E 2.32, G 2.08, H 2.44, I 1.79, K 2.25, L 1.28, M 2.28, N 1.79, P 2.09, Q 2.8, R 1.77, S 2.16, T 2.07, V 2.12, Y 2.39
A14: C 2.47, D 1.86, E 1.81, F 2.8, H 3.03, I 2.46, K 1.82, M 3.11, N 1.48, P 2.02, Q 3.11, R 2.03, S 1.86, T 1.84, V 1.89, W 2.15, Y 2.65
G15: A 1.2, D 2.03, E 1.89, H 1.65, I 3.13, K 1.18, M 4.08, N 2.55, P 2.71, Q 2.07, R 2.42, S 1.77, T 1.61, V 3.52, W 1.58, Y 1.67
G16: A 1.81, C 3.82, D 1.94, E 1.69, H 1.4, I 2.53, K 1.53, L 4.03, M 2.76, N 1.71, Q 2.36, R 1.8, S 1.83, T 2.02, V 1.87, W 3.21, Y 2.16
F17: A 2.07, C 2.18, D 2.43, E 2.44, G 1.68, H 2.06, I 1.23, K 1.96, L 1.09, M 2.11, N 2.55, P 1.81, Q 1.93, R 1.57, S 1.89, T 1.77, V 2.37, Y 2.01
V18: A 2.34, C 1.38, D 1.93, E 1.78, G 3.27, H 2.44, I 1.6, K 2.09, L 1.38, M 1.65, N 1.5, P 1.96, Q 1.92, R 2.95, S 3.77, T 2.17, W 2.79, Y 1.58
D19: A 3.27, C 1.86, G 2.41, K 2, P 1.32, Q 1.41, R 1.96, S 2.12, T 1.95, V 2.61, W 3.27, Y 2.33
F20: A 1.69, D 2.19
